Assay results taken from US6780984B2, “Method for prognosing cancer and the proteins involved” (Northwestern University, priority 2000, dated 2004).

Columns and labels:
PC3 cells = assay: Soft agar assay (anchorage-independent growth); assay type: cell-based, human; details: stable overexpression in PC3 sublines
Method: FIGS. 4A-4D show the effect of calreticulin overexpression on colony formation of PC3 cells in a soft agar assay, PC3 (FIG. 4A), Mock (FIG. 4B), Crt 35 (FIG. 4C) and Crt 59 (FIG. 4). The soft agar assay was conducted in 6-well plates. The bottom agar is 2 ml 0.6% noble agar containing 1×RPMI 1640 medium supplemented with 10% fetal bovine serum (FBS). After the preparation of bottom agar, 1 ml of 0.3% top agar containing 5,000 cells and 1×RPMI 1640 medium supplemented with 10% FBS was added to form the top layer. The assay for each PC3 subline was carried out in duplicate and was repeated at least 3 times.
Colonies with greater than 125 um in diameter were counted in the quantification. Error bars represent standard error means (SEM).
Soft agar assay: The soft agar assay was conducted in 6-well plates. The bottom agar is 2 ml 0.6% noble agar containing 1×RPMI 1640 medium supplemented with 10% FBS. After the preparation of bottom agar, 1 ml of 0.3% top agar containing 5,000 cells and 1×RPMI 1640 medium supplemented with 10% FBS was added to form the top layer. The assay for each PC3 subline was carried out in duplicate and was repeated at least 3 times.

[1] = tested on: TSU prostate cancer cells; assay: Anchorage-independent growth of TSU cells; assay type: cell-based, human; details: overexpression in TSU cells
From the text: Anchorage-independent growth in soft agar correlates with the metastatic potential of cancer cells [Cifone and Fidler, Proc. Nat. Acad. Sci. USA, 77:1039-43 (1980)].

prostate cancer cell = assay: Effect of calreticulin overexpression on other cellular functions; assay type: cell-based
[2] = tested on: xenograft rat Dunning AT3.1 prostate cancer cells; assay: Metastasis of AT3.1 xenografts in nude mice; assay type: in vivo; details: restoration of calreticulin expression
[3] = Repeat A of the Proline-rich Domain; read-out: Kd, high affinity Ca++ binding; cited from earlier work

B1: calreticulin: multi-functional Ca++ binding protein of the endoplasmic reticulum, human SEQ ID NO:36; overexpressed from pcDNA3.1/crt (protein)
chain: MLLSVPLLLGLLGLAVAEPAVYFKEQFLDGDGWTSRWIESKHKSDFGKFVLSSGKFYGDEEKDKGLQTSQDARFYALSASFEPFSNKGQTLVVQFTVKHEQNIDCGGGYVKLFPNSLDQTDMHGDSEYNIMFGPDICGPGTKKVHVIFNYKGKNVLINKDIRCKDDEFTHLYTLIVRPDNTYEVKIDNSQVESGSLEDDWDFLPPKKIKDPDASKPEDWDERAKIDDPTDSKPEDWDKPEHIPDPDAKKPEDWDEEMDGEWEPPVIQNPEYKGEWKPRQIDNPDYKGTWIHPEIDNPEYSPDPSIYAYDNFGVLGLDLWQVKSGTIFDNFLITNDEAYAEEFGNETWGVTKAAEKQMKDKQDEEQRLKEEEEDKKRKEEEEAEDKEDDEDKDEDEEDEEDKEEDEEEDVPGQAKDEL
Which “colony formation in soft agar” value (PC3 cells) does the source give for B1 here?
Its value is “significantly inhibited the size and number of the PC3 colonies”.

And the anchorage-independent growth [1]?
Its anchorage-independent growth is “markedly inhibited anchorage-independent growth”.

What about the “Ca++ ionophore-induced apoptosis” value (prostate cancer cell) of the same molecule?
The value was “inhibits Ca^((+))((+)) ionophore-induced apoptosis”.

What about the cell attachment (prostate cancer cell) of the same molecule?
Its cell attachment is “enhances cell attachment”.

What about the cell proliferation (prostate cancer cell) of the same molecule?
Its cell proliferation is “inhibits prostate cancer cell proliferation”.

What about the metastasis of xenograft [2] of the same molecule?
The metastasis of xenograft was “markedly inhibits the metastasis”.

What about the Kd [3] of the same molecule?
Its Kd is 1600 nM.
